The test system of one series is male Sprague-Dawley rats. Description: Biological activity of mCE-PEG insulin conjugates, blood glucose depression in rat after i.v. injection. It counts as in vivo. The conditions noted are these: from blood glucose AUC vs unmodified human insulin, fresh solution in PBS 20 μg/ml.
Series [1] is described as follows: Accelerated shaking test, physical stability of mCE-PEG insulin conjugates (fibril formation/precipitation). It counts as physicochemical. The conditions noted are these: 87 μM, 37° C., shaker 100 strokes/min, n=14 vials. The protocol:
The long term physical stability of PEG-insulin derivatives was examined by their tendency to form fibrils in the accelerated shaking test at a concentration of 87 μM. Aggregation was evaluated in 5 ml borosilicate glass vials (1.2 ml filling volume) at 37° C., in a shaker at 100 strokes/min. Individual vials (n=14) were withdrawn at determined times, and the remaining soluble fraction of particular PEG-insulin derivatives was determined after filtration (PVDF membrane, 0.22 μm) using UV spectroscopy and/or HPLC. In parallel, vials were checked visually on a daily basis for the presence of turbidity and/or a precipitate, which was an independent indication that physical aggregation had occurred.

For series [2], the system named is Inbred A/J and C57BL/10ScSn mice. The conditions noted are these: intraperitoneal, 3 x 5 μg. The protocol:
Inbred A/J and C57BL/10ScSn mice, 12 weeks old, were used throughout the experiments. Mice (10 per experimental group) were immunized intraperitoneally with 5 μg samples on day 0. Samples were injected either in soluble form (dissolved in PBS, pH 7.4) or as a precipitate (alum precipitate). After 3 weeks, the mice were given a secondary injection, and after another 3 weeks, a third injection. Eight days after the last immunization, the mice were exsanguinated and the serum was separated and stored at -80° C. The specific antibody level in the serum was determined by an ELISA indirect method as described in 44 J. Clin. Lab. Immunol. 191-241 (1994).

Where [3] appears, read: strain A/J, Soluble formulation.
Where [4] appears, read: strain B10, Soluble formulation.

The values below come from US6323311A, “Synthesis of insulin derivatives” (University of Utah Research Foundation, priority 1999, dated 2001).

Like-named read-outs stand apart in the source and are kept apart here.

Protocol for male Sprague-Dawley rats: The biological activity of mCE-PEG-substituted insulin conjugates was tested in a rat model (male Sprague-Dawley rats, 250±50 g) by measuring blood glucose depression levels. The animals were fasted overnight (16 hours) prior to the experiment. In the morning, the rats were anesthetized with intraperitoneally administered sodium pentobarbital. Each animal received an i.v. injection (tail vein) of the particular insulin derivative (20 μg/ml NS/kg). Blood samples were taken from the jugular vein 15 and 5 minutes before injection and 15, 30, 60, 90, 120, 180, and 240 minutes after injection. Blood glucose levels were measured with an Accucheck III blood glucose monitor (Boehringer Mannheim). Bioactivities of insulin derivatives were calculated from AUC (area under curve) values, and the AUC value for the same dose of unmodified human insulin.

For “GlyA1-LysB29-di-mCE-PEG insulin [A1-B29-(PEG600)2 Insulin]”, the “Biological Activity ± S.D.” value with male Sprague-Dawley rats stood at 19.1 ± 3.6 IU/mg. Moreover, in series [1], the “Days to Precipitation ± S.D.” value came out at 8.4 ± 1.3 days.
Turning to “GlyA1-LysB29-di-mCE-PEG insulin [A1-B29-(PEG2000)2 Insulin]”, in the series with male Sprague-Dawley rats, the “Biological Activity ± S.D.” value worked out at 10.6 ± 2.1 IU/mg.
Consider “GlyA1-PheB1-LysB29-tri-mCE-PEG insulin [A1-B1-B29-(PEG600)3 Insulin]”, for which the “Antibody Titres” value in series [2] (strain A/J, Alum ppt.) is given as 0 log2 of serum dilution; in series [2] (setting [3]), 0 log2 of serum dilution; in series [2] (strain B10, Alum ppt.) it was 0 log2 of serum dilution; in series [2] (setting [4]), 0 log2 of serum dilution. Besides, in the series with male Sprague-Dawley rats, the “Biological Activity ± S.D.” value is on record as 5.3 ± 1.1 IU/mg. The “Days to Precipitation ± S.D.” value in series [1] worked out at 35.9 ± 5.3 days.
“GlyA1-PheB1-di-mCE-PEG insulin [A1-B1-(PEG600)2 Insulin]”: the “Biological Activity ± S.D.” value in the series with male Sprague-Dawley rats came out at 16.2 ± 3.2 IU/mg. Further, the “Days to Precipitation ± S.D.” value in series [1] was found to be 26.4 ± 4.6 days.
As for “GlyA1-PheB1-di-mCE-PEG insulin [A1-B1-(PEG2000)2 Insulin]”, the “Days to Precipitation ± S.D.” value in series [1] was 19.3 ± 2.3 days.
For “GlyA1-mCE-PEG insulin [A1-PEG600 Insulin]”, in the series on male Sprague-Dawley rats, the “Biological Activity ± S.D.” value was 22.2 ± 4.2 IU/mg.
For “GlyA1-mCE-PEG insulin [A1-PEG2000 Insulin]”, the “Biological Activity ± S.D.” value in the series on male Sprague-Dawley rats is reported as 15.7 ± 3.1 IU/mg.
With “PheB1-mCE-PEG insulin [B1-PEG600 Insulin]”, the “Antibody Titres” value is on record as 6.1 log2 of serum dilution in series [2] (strain A/J, Alum ppt.); 0 log2 of serum dilution in series [2] (setting [3]); 9.5 log2 of serum dilution in series [2] (strain B10, Alum ppt.); 0 log2 of serum dilution in series [2] (setting [4]). In the series on male Sprague-Dawley rats, the “Biological Activity ± S.D.” value was 22.8 ± 4.2 IU/mg. In addition, in series [1], the “Days to Precipitation ± S.D.” value came out at 22.0 ± 4.6 days.
For “PheB1-mCE-PEG insulin [B1-PEG2000 Insulin]”, the “Antibody Titres” value in series [2] (strain A/J, Alum ppt.) is reported as 0 log2 of serum dilution; in series [2] (setting [3]), 0 log2 of serum dilution; in series [2] (strain B10, Alum ppt.), 0 log2 of serum dilution; in series [2] (setting [4]), 0 log2 of serum dilution. Further, the “Biological Activity ± S.D.” value in the series on male Sprague-Dawley rats is reported as 15.4 ± 2.6 IU/mg.
